Assay results: paper PMC13043726, “SFPQ directs histone H3.3 deposition to R-loops in DNA repeats to protect genome stability”

Assays:
[1] = target: HA-tagged DAXX, full length (UniProt Q9UER7); experiment: co-immunoprecipitation (IP anti-HA, blot anti-Myc); settings: U-2 OS cells; parent: 1
[2] = target: T1, SFPQ full-length (Homo sapiens, UniProt P23246 1-707); experiment: EMSA; EMSA: 10 nM probe, 0-1600 nM SFPQ, 20 mM Tris-HCl pH 7.5, 100 mM KCl, 0.5 mM MgCl2, 0.5 mM EDTA, 0.2 mM DTT, 1% glycerol, room temperature, 30 min (RNaseOUT with RNA); 5% native PAGE, 1xTBE; settings: protein: recombinant, tags: N-terminal His6-myc (vector pNIC-CTHF), chain copies: 2
T1 sequence: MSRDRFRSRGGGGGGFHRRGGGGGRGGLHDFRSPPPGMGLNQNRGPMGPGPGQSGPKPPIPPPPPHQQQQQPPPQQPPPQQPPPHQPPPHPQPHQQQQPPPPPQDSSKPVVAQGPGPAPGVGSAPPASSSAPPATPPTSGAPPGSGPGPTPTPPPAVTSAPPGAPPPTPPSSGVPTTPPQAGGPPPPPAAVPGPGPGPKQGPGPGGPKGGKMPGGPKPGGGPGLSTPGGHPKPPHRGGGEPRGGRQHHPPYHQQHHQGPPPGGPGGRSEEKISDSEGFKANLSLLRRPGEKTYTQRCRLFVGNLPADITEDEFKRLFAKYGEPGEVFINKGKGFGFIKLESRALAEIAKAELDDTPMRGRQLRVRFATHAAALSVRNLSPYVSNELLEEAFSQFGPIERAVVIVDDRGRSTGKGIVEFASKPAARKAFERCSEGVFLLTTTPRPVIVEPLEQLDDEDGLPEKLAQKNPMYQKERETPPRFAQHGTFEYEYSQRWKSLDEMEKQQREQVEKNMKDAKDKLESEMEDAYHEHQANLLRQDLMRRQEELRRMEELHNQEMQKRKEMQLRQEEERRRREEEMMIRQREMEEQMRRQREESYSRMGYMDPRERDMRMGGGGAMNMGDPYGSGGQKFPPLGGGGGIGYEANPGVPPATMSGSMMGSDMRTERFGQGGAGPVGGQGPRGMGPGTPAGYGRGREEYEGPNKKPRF

[3] = label: 5'-6-FAM on strand 1, blunt

Chain of HA-tagged DAXX, full length (Q9UER7 whole entry): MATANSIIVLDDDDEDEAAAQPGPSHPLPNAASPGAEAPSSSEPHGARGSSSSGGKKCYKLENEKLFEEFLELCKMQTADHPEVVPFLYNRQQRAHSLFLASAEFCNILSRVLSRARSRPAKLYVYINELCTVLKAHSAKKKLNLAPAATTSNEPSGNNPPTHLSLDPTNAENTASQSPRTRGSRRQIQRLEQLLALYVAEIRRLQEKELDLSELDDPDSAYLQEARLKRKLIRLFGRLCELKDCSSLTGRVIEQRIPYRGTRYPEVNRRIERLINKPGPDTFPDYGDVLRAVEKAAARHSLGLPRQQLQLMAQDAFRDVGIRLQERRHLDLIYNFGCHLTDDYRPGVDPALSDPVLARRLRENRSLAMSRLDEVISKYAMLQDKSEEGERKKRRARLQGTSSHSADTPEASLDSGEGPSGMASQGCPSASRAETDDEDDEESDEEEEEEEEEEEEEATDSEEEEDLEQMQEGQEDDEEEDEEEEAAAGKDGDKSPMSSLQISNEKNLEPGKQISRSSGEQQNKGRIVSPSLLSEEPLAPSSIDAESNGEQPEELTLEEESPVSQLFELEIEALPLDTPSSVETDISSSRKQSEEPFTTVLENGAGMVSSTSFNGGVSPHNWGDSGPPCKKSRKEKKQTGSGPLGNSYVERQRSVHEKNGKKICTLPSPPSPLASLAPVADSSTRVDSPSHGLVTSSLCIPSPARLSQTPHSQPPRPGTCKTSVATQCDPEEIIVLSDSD

“SFPQ proline-rich P-domain fused to GFP and a nuclear localization signal, myc-tagged (from UniProt P23246) T150delinsKP” gave a ratio to parent [1] of 0.2.

B1: 23-nt dsDNA (D1_B:D3_B) (dsDNA)
DNA 1: CTACTACCCCCACCCTCACAACC
DNA 2: GGTTGTGAGGGTGGGGGTAGTAG
B1: no binding [2, 3].

B2: 23-nt blunt dsRNA (R1_B:R2_B) (dsRNA)
RNA 1: CUACUACCCCCACCCUCACAACC
RNA 2: GGUUGUGAGGGUGGGGGUAGUAG
B2: no binding [2, 3].

B3: 23-nt DNA:RNA hybrid (D1_B:R2_B) (DNA:RNA)
DNA: CTACTACCCCCACCCTCACAACC
RNA: GGUUGUGAGGGUGGGGGUAGUAG
B3: no binding ([2]; label: 5'-6-FAM on DNA strand, blunt).

UUAGGGUUAGGGUUAGGGUUAGGG (ssRNA) [ssRNA TERRA [UUAGGG]4]: binds ([2]; label: 5'-6-FAM, single strand).

GGAAUGGAAUGGAAUGGAAUGGA (ssRNA) [ssRNA Pericentric1 (SatIII [GGAAU]4)]: binds ([2]; label: 5'-6-FAM, single strand).

GAAAGAAAGAAAGAAAGAAAGAA (ssRNA) [ssRNA Pericentric2 ([GAAA]5)]: binds ([2]; label: 5'-6-FAM, single strand).
